In patent publication US20250236673A1 (Ablynx, published 2025):

T1: recombinant human CEACAM5 (human, UniProt P06731 35-685, limits assumed)
T1 construct: Immobilised by amine coupling on a CM5 chip
T1 sequence (looked up): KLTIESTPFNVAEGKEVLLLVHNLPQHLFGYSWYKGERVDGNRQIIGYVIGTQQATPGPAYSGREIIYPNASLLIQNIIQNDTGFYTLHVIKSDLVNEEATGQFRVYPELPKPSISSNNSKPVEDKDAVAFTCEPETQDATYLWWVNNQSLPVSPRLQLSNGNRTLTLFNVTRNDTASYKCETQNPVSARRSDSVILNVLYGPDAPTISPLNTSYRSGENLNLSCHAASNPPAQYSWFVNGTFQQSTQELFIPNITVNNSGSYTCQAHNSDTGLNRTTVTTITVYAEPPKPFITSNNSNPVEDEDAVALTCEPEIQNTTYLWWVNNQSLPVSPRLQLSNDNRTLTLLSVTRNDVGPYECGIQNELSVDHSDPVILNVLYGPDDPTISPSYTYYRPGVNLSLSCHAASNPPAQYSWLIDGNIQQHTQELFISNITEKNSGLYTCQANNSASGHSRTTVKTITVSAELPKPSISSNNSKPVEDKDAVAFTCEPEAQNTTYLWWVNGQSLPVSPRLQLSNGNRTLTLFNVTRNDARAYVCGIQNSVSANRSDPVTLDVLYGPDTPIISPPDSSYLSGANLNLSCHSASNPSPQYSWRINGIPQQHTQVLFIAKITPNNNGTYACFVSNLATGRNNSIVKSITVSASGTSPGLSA


Experiments:
human serum albumin = target: T2, human serum albumin (human, UniProt P02768 25-609); assay: SPR on HSA (Example 2; method not restated, as Example 1)
T2 construct: Immobilised by amine coupling on a C1 chip; also called HSA

soluble human TNFα = soluble human TNFα (human, UniProt P01375 77-233); assay: cell-based or functional assay
[1] = target: T1, recombinant human CEACAM5; assay: SPR on CEACAM5 (Example 2; method not restated, as Example 1)

soluble human TNFα, sequence (P01375 77-233 limits assumed): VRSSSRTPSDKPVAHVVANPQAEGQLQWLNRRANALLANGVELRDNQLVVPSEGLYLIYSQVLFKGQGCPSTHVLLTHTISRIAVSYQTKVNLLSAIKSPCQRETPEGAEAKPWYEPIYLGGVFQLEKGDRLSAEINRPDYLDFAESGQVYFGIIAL
T2 sequence (P02768 25-609 limits assumed): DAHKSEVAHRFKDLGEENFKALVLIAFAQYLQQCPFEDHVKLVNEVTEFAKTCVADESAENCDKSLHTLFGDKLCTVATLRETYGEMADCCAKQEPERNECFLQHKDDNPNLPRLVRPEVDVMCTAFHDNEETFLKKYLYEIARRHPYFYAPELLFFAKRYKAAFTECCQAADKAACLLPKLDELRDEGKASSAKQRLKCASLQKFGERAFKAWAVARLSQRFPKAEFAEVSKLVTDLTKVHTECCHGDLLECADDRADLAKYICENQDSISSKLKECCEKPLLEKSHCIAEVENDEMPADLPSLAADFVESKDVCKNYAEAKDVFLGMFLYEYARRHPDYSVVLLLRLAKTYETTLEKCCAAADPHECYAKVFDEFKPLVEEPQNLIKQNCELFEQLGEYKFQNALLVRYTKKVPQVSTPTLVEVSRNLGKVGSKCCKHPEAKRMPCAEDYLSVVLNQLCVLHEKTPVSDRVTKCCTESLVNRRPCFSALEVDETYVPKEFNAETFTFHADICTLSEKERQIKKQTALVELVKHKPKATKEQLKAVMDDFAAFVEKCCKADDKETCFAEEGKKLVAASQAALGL

Binder | Kd (human serum albumin) [nM] | koff (human serum albumin) [s⁻¹] | kon (human serum albumin) [M⁻¹ s⁻¹] | IC50, inhibition of human TNFα-induced NFkB activation (HEK293_NFkB-NLucP Nano luciferase reporter) (soluble human TNFα) | Kd [1] [nM] | koff [1] [s⁻¹] | kon [1] [M⁻¹ s⁻¹]
T039400045 (VHH, Single lysine at 45; also called HIS6-ENLYFQS-5GS-HSA006A06(K43R, P45K,K64R, K75R, K83R)) VHH: EVQLVESGGGVVQPGGSLRLSCAASGFTFRSFGMSWVRQAPGRGKEWVSSISGSGSDTLYADSVRGRFTISRDNSRNTLYLQMNSLRPEDTALYYCTIGGSLSRSSQGTLVTVSS | 8.59 | 0.00263 | 306000 |  |  |  | 
T039400046 (VHH, Single lysine at the C-terminus; also called HIS6-ENLYFQS-5GS-HSA006A06(K43R, K64R, K75R, K83R)-K) VHH: EVQLVESGGGVVQPGGSLRLSCAASGFTFRSFGMSWVRQAPGRGPEWVSSISGSGSDTLYADSVRGRFTISRDNSRNTLYLQMNSLRPEDTALYYCTIGGSLSRSSQGTLVTVSS | 5.95 | 0.00224 | 377000 |  |  |  | 
T031200256 (VHH) VHH: DVQLVESGGGVVQPGGSLRLSCTASGFTFSTADMGWFRQAPGKGREFVARISGIDGTTYYDEPVKGRFTISRDKSKNTVYLQMNSLKPEDTALYYCRSPRYADQWSAYDYWGQGTLVTVSS |  |  |  | 4.3e-11 M (inferred; column head prints 'Average of ka (1/Ms)') |  |  | 
T031200261 (VHH) VHH: DVQLVESGGGVVQPGGSLKLSCTASGFTFSTADMGWFRQAPGKGREFVARISGIDGTTYYDEPVKGRFTISKDKSKNTVYLQMNSLKPEDTALYYCRSPRYADQWSAYDYWGKGTLVTVSS |  |  |  | 1.91e-10 M (inferred; column head prints 'Average of ka (1/Ms)') |  |  | 
T031200262 (VHH) VHH: DVQLVESGGGVVQPGGSLKLSCTASGFTFSTADMGWFRQAPGKGKEFVARISGIDGTTYYDEPVKGRFTISRDKSKNTVYLQMNSLKPEDTALYYCRSPRYADQWSAYDYWGKGTLVTVSS |  |  |  | 6.43e-11 M (inferred; column head prints 'Average of ka (1/Ms)') |  |  | 
T039400047 (VHH, Single lysine at 64; also called HIS6-ENLYFQS-5GS-A0315007E07(K43R, K75R)) VHH: EVQLVESGGGVVQPGGSLRLSCAASGLTFSTYTMGWFRQAPGREREFVAAIIWSGSNTYYADSVKGRFTISRDNARNTVYLQMNSLRPEDTALYYCAAQHFGPIGLTTRGYHYWGQGTLVTVSS |  |  |  |  | 0.915 | 0.000451 | 493000

Now from value to binder:

Kd (human serum albumin) [nM] | koff (human serum albumin) [s⁻¹] | kon (human serum albumin) [M⁻¹ s⁻¹] | IC50, inhibition of human TNFα-induced NFkB activation (HEK293_NFkB-NLucP Nano luciferase reporter) (soluble human TNFα) | Kd [1] [nM] | koff [1] [s⁻¹] | kon [1] [M⁻¹ s⁻¹] | Binder
 |  |  |  | 1.01 | 0.000526 | 522000 | T039400054 (VHH, Single lysine at the C-terminus; also called HIS6-ENLYFQS-5GS-A0315007E07(K43R, K64R, K75R,)-K) VHH: EVQLVESGGGVVQPGGSLRLSCAASGLTFSTYTMGWFRQAPGREREFVAAIIWSGSNTYYADSVRGRFTISRDNARNTVYLQMNSLRPEDTALYYCAAQHFGPIGLTTRGYHYWGQGTLVTVSS
 |  |  |  | 1.43 | 0.000633 | 441000 | T039400052 (VHH, Single lysine at 73; also called HIS6-ENLYFQS-5GS-A0315007E07K43R, K64R, N73K, K75R) VHH: EVQLVESGGGVVQPGGSLRLSCAASGLTFSTYTMGWFRQAPGREREFVAAIIWSGSNTYYADSVRGRFTISRDKARNTVYLQMNSLRPEDTALYYCAAQHFGPIGLTTRGYHYWGQGTLVTVSS
 |  |  |  | 0.952 | 0.000526 | 553000 | T039400050 (VHH, No lysine; also called HIS6-ENLYFQS-5GS-A0315007E07(K43R, K64R, K75R)) VHH: EVQLVESGGGVVQPGGSLRLSCAASGLTFSTYTMGWFRQAPGREREFVAAIIWSGSNTYYADSVRGRFTISRDNARNTVYLQMNSLRPEDTALYYCAAQHFGPIGLTTRGYHYWGQGTLVTVSS
 |  |  |  | 0.943 | 0.000516 | 547000 | T039400053 (VHH, Single lysine at 43; 24 used; also called HIS6-ENLYFQS-5GS-A0315007E07(K64R, K75R,)) VHH: EVQLVESGGGVVQPGGSLRLSCAASGLTFSTYTMGWFRQAPGKEREFVAAIIWSGSNTYYADSVRGRFTISRDNARNTVYLQMNSLRPEDTALYYCAAQHFGPIGLTTRGYHYWGQGTLVTVSS
 |  |  |  | 0.874 | 0.000504 | 577000 | T039400048 (VHH, Single lysine at 45; also called HIS6-ENLYFQS-5GS-A0315007E07(K43R, R45K, K64R, K75R)) VHH: EVQLVESGGGVVQPGGSLRLSCAASGLTFSTYTMGWFRQAPGREKEFVAAIIWSGSNTYYADSVRGRFTISRDNARNTVYLQMNSLRPEDTALYYCAAQHFGPIGLTTRGYHYWGQGTLVTVSS
 |  |  |  | 0.914 | 0.000536 | 586000 | T039400049 (VHH, also called HIS6-ENLYFQS-5GS-A0315007E07(K43R, K64R, K75R, Q105K)) VHH: EVQLVESGGGVVQPGGSLRLSCAASGLTFSTYTMGWFRQAPGREREFVAAIIWSGSNTYYADSVRGRFTISRDNARNTVYLQMNSLRPEDTALYYCAAQHFGPIGLTTRGYHYWGKGTLVTVSS
